Reference: publication PMC4073494

How the values were obtained:
[1] = biological target: EED (Homo sapiens) (UniProt O75530); conditions: cited from earlier work
[2] = biological target: purified full-length EED (AlphaScreen) (UniProt O75530); test: AlphaScreen or HTRF
Chain of purified full-length EED (AlphaScreen) (O75530 whole entry): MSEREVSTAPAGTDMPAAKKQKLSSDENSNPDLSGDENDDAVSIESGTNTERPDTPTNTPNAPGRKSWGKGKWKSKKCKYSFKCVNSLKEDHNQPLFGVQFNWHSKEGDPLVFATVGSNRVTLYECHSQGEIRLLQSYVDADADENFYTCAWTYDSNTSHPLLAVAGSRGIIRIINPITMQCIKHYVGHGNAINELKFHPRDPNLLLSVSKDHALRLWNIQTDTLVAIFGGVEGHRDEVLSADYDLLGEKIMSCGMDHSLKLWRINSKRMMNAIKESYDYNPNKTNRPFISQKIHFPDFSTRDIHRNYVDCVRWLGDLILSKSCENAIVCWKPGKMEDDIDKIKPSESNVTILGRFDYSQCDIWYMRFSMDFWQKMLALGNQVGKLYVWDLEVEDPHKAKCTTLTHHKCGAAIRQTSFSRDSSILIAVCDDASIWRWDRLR

Chain of EZH2 39-68 (Q15910 39-68): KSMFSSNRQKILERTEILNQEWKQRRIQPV
Chain of EED (Homo sapiens) (O75530 2-441): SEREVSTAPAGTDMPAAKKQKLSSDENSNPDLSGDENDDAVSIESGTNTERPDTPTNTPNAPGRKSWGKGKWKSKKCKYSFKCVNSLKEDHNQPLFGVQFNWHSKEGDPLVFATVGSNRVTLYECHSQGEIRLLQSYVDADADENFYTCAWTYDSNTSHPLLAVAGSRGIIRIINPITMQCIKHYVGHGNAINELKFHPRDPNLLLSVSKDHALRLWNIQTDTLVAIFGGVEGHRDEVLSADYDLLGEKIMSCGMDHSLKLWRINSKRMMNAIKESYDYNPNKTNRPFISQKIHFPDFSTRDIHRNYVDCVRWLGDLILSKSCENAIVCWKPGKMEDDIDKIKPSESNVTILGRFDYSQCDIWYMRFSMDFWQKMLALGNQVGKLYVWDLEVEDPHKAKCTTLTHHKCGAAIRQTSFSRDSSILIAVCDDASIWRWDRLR

Row | EC50 [2] [µM] | Substance | Kd [1] [µM]
1 |  | EZH2 39-68 (from UniProt Q15910) | 0.38
2 | 0.605 | unlabeled full-length RING1B (from UniProt Q99496 1-336) (natural protein) | 
